# B1: LCB-018 (bispecific antibody)
# heavy: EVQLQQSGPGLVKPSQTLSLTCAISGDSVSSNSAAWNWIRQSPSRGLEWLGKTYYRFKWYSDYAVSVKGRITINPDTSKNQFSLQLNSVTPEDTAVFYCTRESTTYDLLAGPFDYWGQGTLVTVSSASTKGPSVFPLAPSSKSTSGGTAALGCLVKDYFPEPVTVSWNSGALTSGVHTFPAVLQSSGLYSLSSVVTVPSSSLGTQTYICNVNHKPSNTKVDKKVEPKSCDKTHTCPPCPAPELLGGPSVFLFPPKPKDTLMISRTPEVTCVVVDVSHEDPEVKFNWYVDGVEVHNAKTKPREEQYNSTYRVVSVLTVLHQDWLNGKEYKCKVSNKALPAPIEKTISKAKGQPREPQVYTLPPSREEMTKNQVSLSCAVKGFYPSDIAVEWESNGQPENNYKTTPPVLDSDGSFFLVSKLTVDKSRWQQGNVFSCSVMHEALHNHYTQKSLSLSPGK
# chain 1: not shown
# chain 2: WELKKDVYVVELDWYPDAPGEMVVLTCDTPEEDGITWTLDQSSEVLGSGKTLTIQVKEFGDAGQYTCHKGGEVLSHSLLLLHKKEDGIWSTDILKDQKEPKNKTFLRCEAKNYSGRFTCWWLTTISTDLTFSVKSSRGSSDPQGVTCGAATLSAERVRGDNKEYEYSVECQEDSACPAAEESLPIEVMVDAVHKLKYENYTSSFFIRDIIKPDPPKNLQLKPLKNSRQVEVSWEYPDTWSTPHSYFSLTFCVQVQGKSKREKKDRVFTDKTSATVICRKNASISVRAQDRYYSSSWSEWASVPCS
# B2: Anti-GPC3 monoclonal antibody codrituzumab (antibody, human IgG1, kappa, V domains shown)
# VH: QVQLVQSGAEVKKPGASVKVSCKASGYTFTDYEMHWVRQAPGQGLEWMGALDPKTGDTAYSQKFKGRVTLTADKSTSTAYMELSSLTSEDTAVYYCTRFYSYTYWGQGTLVTVSS
# VL: DVVMTQSPLSLPVTPGEPASISCRSSQSLVHSNRNTYLHWYLQKPGQSPQLLIYKVSNRFSGVPDRFSGSGSGTDFTLKISRVEAEDVGVYYCSQNTHVPPTFGQGTKLEIKR
# notes: also called GC33; anti-GPC3 mAb
# B3: Anti-CD38 monoclonal antibody Felzartamab (antibody, human IgG1, lambda, V domains shown)
# VH: QVQLVESGGGLVQPGGSLRLSCAASGFTFSSYYMNWVRQAPGKGLEWVSGISGDPSNTYYADSVKGRFTISRDNSKNTLYLQMNSLRAEDTAVYYCARDLPLVYTGFAYWGQGTLVTVSS
# VL: DIELTQPPSVSVAPGQTARISCSGDNLRHYYVYWYQQKPGQAPVLVIYGDSKRPSGIPERFSGSNSGNTATLTISGTQAEDEADYYCQTYTGGASLVFGGGTKLTVLG
# Key:
# [1] = molecular target: T1, IL12 receptors on H_IL12 Reporter 293 cells (UniProt P42701 24-662; Q99665 24-862, limits assumed); test: cell-based or functional assay
# [2] = molecular target: T1, IL12 receptors on H_IL12 Reporter 293 …; test: cell-based or functional assay; remark: listed apart in the source
# [3] = molecular target: T2, GPC3 on liver cancer cells (HepG2, HuH-7) (UniProt P51654 25-554); test: flow cytometry on HepG2 cells, Alexa Fluor 488 anti-human IgG; table under the plot prints no unit, unit taken from the axis Con.(nM)
# T2 construct: whole, on cells; also called GPC3 antigen
# [4] = molecular target: CD47 on CD47-transfected CHO-K1 cells (Homo sapiens (Human), UniProt Q08722 19-323); test: flow cytometry on CD47-transfected CHO-K1 cells (CD38-/CD47+), anti-human IgG-FITC detection
# T1 sequence (Q99665 24-862 limits assumed, chain 2 of 2, other chains not shown): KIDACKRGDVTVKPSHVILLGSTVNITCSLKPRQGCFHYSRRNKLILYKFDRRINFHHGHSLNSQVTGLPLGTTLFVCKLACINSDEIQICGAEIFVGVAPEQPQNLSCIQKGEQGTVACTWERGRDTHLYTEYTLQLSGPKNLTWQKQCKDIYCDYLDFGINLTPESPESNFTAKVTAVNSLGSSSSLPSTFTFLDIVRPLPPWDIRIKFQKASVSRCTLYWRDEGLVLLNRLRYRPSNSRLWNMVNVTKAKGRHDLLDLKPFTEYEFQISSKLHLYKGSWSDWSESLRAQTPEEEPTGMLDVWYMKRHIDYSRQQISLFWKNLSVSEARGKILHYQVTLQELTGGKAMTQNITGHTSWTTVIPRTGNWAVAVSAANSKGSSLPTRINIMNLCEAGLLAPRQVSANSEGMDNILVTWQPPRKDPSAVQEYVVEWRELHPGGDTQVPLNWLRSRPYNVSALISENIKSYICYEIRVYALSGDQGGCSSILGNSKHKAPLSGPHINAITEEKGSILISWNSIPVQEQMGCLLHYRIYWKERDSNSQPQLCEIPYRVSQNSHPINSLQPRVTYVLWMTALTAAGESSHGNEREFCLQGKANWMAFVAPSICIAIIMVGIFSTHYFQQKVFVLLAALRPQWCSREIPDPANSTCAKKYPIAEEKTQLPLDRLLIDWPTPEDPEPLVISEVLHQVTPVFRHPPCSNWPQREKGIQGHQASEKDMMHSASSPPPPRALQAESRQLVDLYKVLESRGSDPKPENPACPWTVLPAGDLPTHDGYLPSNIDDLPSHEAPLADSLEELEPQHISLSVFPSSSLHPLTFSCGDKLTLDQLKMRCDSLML
binder,measurement,setting,value
B1,EC50 on H_IL12 Reporter 293 cells (One-Glo signal; called binding affinity by the filing),[1],30 nM
same,fold weaker than the IL12A and IL12B complex on H_IL12 Reporter 293 cells,[1],~500 times
same,"EC50 (read off the curve), H_IL12 Reporter 293 cells, One-Glo signal, LCB-018 with IL12B after isotype pre-incubation (TIGIT free)",[2],~4 nM
same,"EC50 (read off the curve), H_IL12 Reporter 293 cells, One-Glo signal, LCB-018 with IL12B after pre-block of TIGIT with 200 nM Tiragolumab",[2],~10 nM
B2,EC50,[3],0.529 nM
B3,binding result,[4],no binding

# — patent US20230365703A1 (SHANGHAI LYN CREST ENTERPRISE MANAGEMENT, published 2023)
